Test results reported in patent US20150258180A1 (UNIVERSITY OF MANITOBA, published 2015).
One block for each binder: values may come before it.

Key:
[1] = molecular target: T1, human GM2 activator protein (GM2AP), recombinant, P17900
T1 chain: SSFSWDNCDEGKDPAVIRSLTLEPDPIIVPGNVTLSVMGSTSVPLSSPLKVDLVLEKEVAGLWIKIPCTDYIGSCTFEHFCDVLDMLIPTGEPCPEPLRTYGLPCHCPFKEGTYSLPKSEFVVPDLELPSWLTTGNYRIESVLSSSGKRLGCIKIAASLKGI

[2] = molecular target: plasma membrane mannose-6-phosphate receptor of human Tay-Sachs fibroblasts (human, UniProt P11717 41-2491); experiment: cell-based or functional assay
plasma membrane mannose-6-phosphate receptor of human Tay-Sachs fibroblasts, sequence (P11717 41-2491): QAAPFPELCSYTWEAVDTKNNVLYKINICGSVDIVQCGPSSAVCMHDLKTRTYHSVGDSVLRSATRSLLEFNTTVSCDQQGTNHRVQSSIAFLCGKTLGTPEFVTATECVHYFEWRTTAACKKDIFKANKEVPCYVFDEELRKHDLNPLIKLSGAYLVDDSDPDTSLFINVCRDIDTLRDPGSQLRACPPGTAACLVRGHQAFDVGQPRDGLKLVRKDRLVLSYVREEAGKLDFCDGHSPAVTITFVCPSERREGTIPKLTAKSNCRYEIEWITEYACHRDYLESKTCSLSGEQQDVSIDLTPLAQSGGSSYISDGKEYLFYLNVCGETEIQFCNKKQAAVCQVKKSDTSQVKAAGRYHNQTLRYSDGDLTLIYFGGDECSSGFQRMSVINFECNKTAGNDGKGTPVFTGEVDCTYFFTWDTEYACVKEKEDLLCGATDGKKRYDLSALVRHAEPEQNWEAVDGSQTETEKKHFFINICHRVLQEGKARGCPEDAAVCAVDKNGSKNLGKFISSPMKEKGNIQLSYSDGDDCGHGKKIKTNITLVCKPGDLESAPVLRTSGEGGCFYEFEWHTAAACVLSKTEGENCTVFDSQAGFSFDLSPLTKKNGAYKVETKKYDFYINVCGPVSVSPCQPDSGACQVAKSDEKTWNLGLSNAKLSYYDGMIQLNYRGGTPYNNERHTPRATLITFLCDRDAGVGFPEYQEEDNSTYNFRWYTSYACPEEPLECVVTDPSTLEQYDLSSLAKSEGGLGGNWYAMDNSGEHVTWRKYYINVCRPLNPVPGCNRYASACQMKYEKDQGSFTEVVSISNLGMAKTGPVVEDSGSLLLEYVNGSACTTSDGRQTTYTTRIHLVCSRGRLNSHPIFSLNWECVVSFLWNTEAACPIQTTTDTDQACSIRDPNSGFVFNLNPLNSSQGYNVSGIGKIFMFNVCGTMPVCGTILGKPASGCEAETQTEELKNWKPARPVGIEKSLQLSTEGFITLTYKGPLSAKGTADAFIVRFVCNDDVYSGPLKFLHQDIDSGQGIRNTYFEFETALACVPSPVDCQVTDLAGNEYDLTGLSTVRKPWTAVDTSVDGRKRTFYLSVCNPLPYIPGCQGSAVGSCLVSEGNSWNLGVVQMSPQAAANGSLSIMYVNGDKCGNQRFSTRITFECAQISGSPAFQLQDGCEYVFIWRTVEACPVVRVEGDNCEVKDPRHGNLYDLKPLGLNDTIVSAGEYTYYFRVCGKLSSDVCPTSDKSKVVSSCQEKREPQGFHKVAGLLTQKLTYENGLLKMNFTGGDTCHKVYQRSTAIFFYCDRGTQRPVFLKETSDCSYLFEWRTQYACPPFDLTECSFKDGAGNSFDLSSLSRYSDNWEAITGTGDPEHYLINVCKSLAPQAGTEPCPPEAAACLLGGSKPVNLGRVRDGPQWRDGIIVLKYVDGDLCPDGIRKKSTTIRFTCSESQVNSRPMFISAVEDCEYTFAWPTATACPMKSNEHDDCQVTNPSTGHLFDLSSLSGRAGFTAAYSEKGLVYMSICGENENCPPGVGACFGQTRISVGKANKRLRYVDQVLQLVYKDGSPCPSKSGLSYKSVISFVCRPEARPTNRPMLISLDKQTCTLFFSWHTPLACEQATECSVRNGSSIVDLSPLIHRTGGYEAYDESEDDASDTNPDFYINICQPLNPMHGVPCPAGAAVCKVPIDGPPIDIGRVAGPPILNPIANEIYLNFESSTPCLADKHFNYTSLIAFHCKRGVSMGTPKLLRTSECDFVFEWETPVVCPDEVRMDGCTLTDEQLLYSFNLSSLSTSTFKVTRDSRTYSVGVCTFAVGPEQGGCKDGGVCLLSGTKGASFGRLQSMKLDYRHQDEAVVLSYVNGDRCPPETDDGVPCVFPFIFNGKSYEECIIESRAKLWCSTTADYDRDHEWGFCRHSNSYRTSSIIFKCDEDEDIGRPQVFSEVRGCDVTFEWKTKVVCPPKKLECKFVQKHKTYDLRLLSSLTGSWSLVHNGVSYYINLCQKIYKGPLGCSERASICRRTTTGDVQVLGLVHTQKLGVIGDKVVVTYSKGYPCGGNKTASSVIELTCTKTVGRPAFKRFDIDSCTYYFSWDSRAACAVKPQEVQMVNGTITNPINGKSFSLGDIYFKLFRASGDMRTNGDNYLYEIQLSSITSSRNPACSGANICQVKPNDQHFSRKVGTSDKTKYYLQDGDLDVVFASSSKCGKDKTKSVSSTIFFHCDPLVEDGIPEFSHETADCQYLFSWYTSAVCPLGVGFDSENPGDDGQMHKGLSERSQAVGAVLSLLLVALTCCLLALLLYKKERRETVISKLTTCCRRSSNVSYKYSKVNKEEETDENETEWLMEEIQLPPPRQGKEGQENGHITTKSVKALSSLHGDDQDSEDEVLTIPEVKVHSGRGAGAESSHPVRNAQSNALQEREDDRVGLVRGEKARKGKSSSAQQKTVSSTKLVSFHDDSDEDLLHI

B1: mature variant α-subunit homodimer (500 mM NaCl DEAE fraction) (protein)
chain: LWPWPQNFQTSDQRYVLYPNNFQFQYDVSSAAQPGCSVLDEAFQRYRDLLFGSGSWPRPYLTGKRHTLEKNVLVVSVVTPGCNQLPTLESVENYTLTINDDQCLLLSETVWGALRGLETFSQLVWKSAEGTFFINKTEIEDFPRFPHRGLLLDTSRHYLPLKSILDTLDVMAYNKLNVFHWHLVDDQSFPYESFTFPELMRKGSYSLSHIYTAQDVKEVIEYARLRGIRVLAEFDTPGHTLSWGPGIPGLLTPCYSGSEPSGTFGPVNPSLNNTYEFMSTFFLEVSSVFPDFYLHLGGDEVDFTCWKSNPEIQDFMRKKGFGEDFKQLESFYIQTLLDIVSSYGKGYVVWQEVFDNKVKIQPDTIIQVWREDIPVNYMKELELVTKAGFRALLSAPWYLNRISYGQDWRKFYKVEPLAFEGTPEQKALVIGGEACMWGEYVDATNLVPRLWPRAGAVAERLWSNKLTRDMDDAYDRLSHFRCELVRRGVAAQPLYAGYCNQEFEQT
NBD-GM3 produced in the overnight in vitro NBD-GM2 hydrolysis assay (liposomes plus rGM2AP), against Hex A at the same number of MUG units [1]: the variant protein produces at least twice as much NBD-GM3 as Hex A | detectable NBD-GM3 in the in vitro NBD-GM2 hydrolysis assay with human GM2AP [1]: Only the assay containing Hex A or the variant protein produced detectable levels of NBD-GM3

fold increase in intracellular MUGS activity of untransfected TSD fibroblasts grown in conditioned media [2]: ~38 fold | fold increase in intracellular MUGS activity of untransfected TSD fibroblasts grown in conditioned media containing 5 mM mannose-6-phosphate [2]: ~10 fold
B2: secreted variant β-hexosaminidase protein in conditioned media (enzyme)
chain: B1 chain
modifications: mannose-6-phosphate on Asn-linked oligosaccharides

B3: Hex A (β-hexosaminidase A), purified from human placenta (protein)
chain 1: LWPWPQNFQTSDQRYVLYPNNFQFQYDVSSAAQPGCSVLDEAFQRYRDLLFGSGSWPRPYLTGKRHTLEKNVLVVSVVTPGCNQLPTLESVENYTLTINDDQCLLLSETVWGALRGLETFSQLVWKSAEGTFFINKTEIEDFPRFPHRGLLLDTSRHYLPLSSILDTLDVMAYNKLNVFHWHLVDDPSFPYESFTFPELMRKGSYNPVTHIYTAQDVKEVIEYARLRGIRVLAEFDTPGHTLSWGPGIPGLLTPCYSGSEPSGTFGPVNPSLNNTYEFMSTFFLEVSSVFPDFYLHLGGDEVDFTCWKSNPEIQDFMRKKGFGEDFKQLESFYIQTLLDIVSSYGKGYVVWQEVFDNKVKIQPDTIIQVWREDIPVNYMKELELVTKAGFRALLSAPWYLNRISYGPDWKDFYIVEPLAFEGTPEQKALVIGGEACMWGEYVDNTNLVPRLWPRAGAVAERLWSNKLTSDLTFAYERLSHFRCELLRRGVQAQPLNVGFCEQEFEQT
chain 2: TQVQQLLVSITLQSECDAFPNISSDESYTLLVKEPVAVLKANRVWGALRGLETFSQLVYQDSYGTFTINESTIIDSPRFSHRGILIDTSRHYLPVKIILKTLDAMAFNKFNVLHWHIVDDQSFPYQSITFPELSNKGSYSLSHVYTPNDVRMVIEYARLRGIRVLPEFDTPGHTLSWGKGQKDLLTPCYSRQNKLDSFGPINPTLNTTYSFLTTFFKEISEVFPDQFIHLGGDEVEFKCWESNPKIQDFMRQKGFGTDFKKLESFYIQKVLDIIATINKGSIVWQEVFDDKAKLAPGTIVEVWKDSAYPEELSRVTASGFPVILSAPWYLDLISYGQDWRKYYKVEPLDFGGTQKQKQLFIGGEACLWGEYVDATNLTPRLWPRASAVGERLWSSKDVRDMDDAYDRLTRHRCRMVERGIAAQPLYAGYCNHENM
detectable NBD-GM3 in the in vitro NBD-GM2 hydrolysis assay with human GM2AP [1]: Only the assay containing Hex A or the variant protein produced detectable levels of NBD-GM3

B4: Hex B (β-hexosaminidase B), purified from human placenta (protein)
chain: B3 chain 2
detectable NBD-GM3 in the in vitro NBD-GM2 hydrolysis assay with human GM2AP (none for Hex B, the negative control) [1]: Only the assay containing Hex A or the variant protein produced detectable levels of NBD-GM3
